Measured values: patent US12123009B2, “Methods and compositions for PPO herbicide tolerance in plants” (Monsanto Technology LLC, priority 2015, dated 2024)

B1: H_N20: microbial HemG protoporphyrinogen oxidase, SEQ ID NO:2 (SEQ ID NO:12 lacking start methionine) (protein, listed as Pantoea ananatis)
chain: MKALILFSTRDGQTQKIASAIADEIKGQQSCDVINIQDAKTLDWQQYDRVLIGASIRYGHFQPVVNEFVKHNLLALQQRVSGFFSVNLTARKPEKRSPETNAYTVKFLAQSPWQPDCCAVFAGALYYPRYRWFDRVMIQFIMRMTGGETDASKEVEYTDWQQVQRFARDFAQLPGKSY
B2: H_N30: microbial HemG protoporphyrinogen oxidase, SEQ ID NO:5 (SEQ ID NO:14 lacking start methionine) (protein, listed as Erwinia toletana)
chain: MKALILFSSREGQTREIASYIANSIKEEMECDVFNILRVEQIDWSQYDRVLIGGSIHYGHFHPAVAKFVKRHLHELQQRSSGFFCVNLTARKADKRTPQTNAYMRKFLLQSPWQPDCCAVFAGALRYTRYRWFDRVMIQLIMRMTGGETDTSKEVEYTDWTQVARFAQEFAHLPGKTQ
B3: H_N50: microbial HemG protoporphyrinogen oxidase, SEQ ID NO:7 (SEQ ID NO:16 lacking start methionine) (protein, listed as Shimwellia blattae)
chain: MKTLILFSTRDGQTHKIARHIAGVLEEQGKACELVDLLQPGEPDWSTVECVVLGASIRYGHFHKSFIRFVNTHAQRLNNMPGALFTVNLVARKPEKQSPQTNSYTRKFLAASPWQPQRCQVFAGALRYPRYSWYDRMMIRLIMKMAGGETDTRKEVEYTDWQSVTRFAREIAQLPGETR
B4: H_N100: microbial HemG protoporphyrinogen oxidase, SEQ ID NO:9 (SEQ ID NO:17 lacking start methionine; variant 20) (protein, listed as Enterobacter cloacae)
chain: MKTLILFSTRDGQTREIAAFLASELKEQGIYADVINLNRTEEIAWQEYDRVVIGASIRYGHFHPAVDRFVKKHTETLNSLPGAFFSVNLVARKAEKRTPQTNSYTRKFLLNSPWKPAACAVFAGALRYPRYRWYDRFMIRLIMKMTGGETDTRKEVVYTDWSQVASFAREIVQLTRSSRL

Tests used:
[1] = test system: soybean plantlets; experiment: High-throughput soybean screening for herbicide tolerance (plantlets); assay type: in vivo, soybean (A3555); parameters: key: 0 for poor tolerance, high damage, low green coloration; 1 for some tolerance, average damage, moderate green coloration; 2 for good tolerance, low damage, high green coloration; details: S-3100 spray five weeks post-transformation, scored day four
Excerpt: A high-throughput plant transformation and screening method was used to evaluate large numbers of constructs in transgenic plants for herbicide tolerance in early transformation plantlet tissue. This allowed for faster and higher volume screening of construct configurations and PPO enzymes.
This permitted the side-by-side comparison of seven different HemG PPO enzymes with thirty-seven different targeting peptides using the same promoter and 3′UTR elements for gene expression. These plant transformation constructs were used to transform soybean excised embryos (germplasm A3555) using A. tumefaciens and standard methods known in the art. Four hundred explants were inoculated for each construct resulting in twelve containers per construct. A sterile PPO herbicide solution was used for herbicide tolerance testing. The herbicide solution consisted of 0.3 g of S-3100 in crop oil concentrate (5.0 mL) and 495 mL of deionized water. This was filtered through a 0.45 micron Nalgene® Rapid-Flow™ Tissue Culture Filter Unit and Surfactant-Free Cellulose Acetate membrane filter unit (VWR, Radnor, PA, USA). The resulting sterile solution was shaken before application.
At five weeks post-transformation, four of the twelve plant containers per construct were sprayed with two passes of the sterile PPO herbicide solution. The treated plantlets were then enclosed in the container and received at least 15 hours of light exposure post spray each day for four days. At the end of day four post application of S-3100, the treated plantlets were photographed and scored on a visual scale of green coloration (green coloration was representative of healthy photosynthetic plant tissue as compared to photo-bleached tissue) versus damage. The scoring values were 0 for poor tolerance, high damage, low green coloration; 1 for some tolerance, average damage, moderate green coloration; and 2 for good tolerance, low damage, high green coloration. The scoring for each construct is presented in Table 9, where n.d. indicates the analysis was not conducted.

[2] = test system: R0 soybean plants; experiment: R0 transgenic soybean herbicide tolerance at eleven weeks; assay type: in vivo; details: R0 plants sprayed with S-3100 at eleven weeks, rated seven days after treatment
Procedure: The plantlets in the non-sprayed containers corresponding to constructs having a score of 2 were transplanted at approximately 7 weeks post transformation and grown as R0 plants using standard methods known in the art. Plantlets corresponding to non-tolerant scores of 0 and 1 were also grown to serve as negative controls. The R0 plants were grown in a greenhouse under long-day nursery conditions (18 hr light at 80° F. then 6 hr dark at 74° F.) for approximately four weeks. At eleven weeks, the R0 plants were sprayed with two passes of the same herbicide solution (0.3 g of 5-3100) described above. Herbicide injury ratings were collected seven days after treatment.
The results of the herbicide tolerance application at eleven weeks to the R0 plants confirmed the low percent injury rating scores observed in the high-throughput screen at five weeks. Any injury rating of 30% or above was equivalent to non-transgenic soybean injury ratings. A few of the constructs stood out as providing very good tolerance to the herbicide application. […] Data are provided in Table 10, where n.d. indicates the analysis was not conducted.

Row | Molecule | coloration score ([1]; TP9) | coloration score ([1]; TP11) | coloration score ([1]; TP12) | coloration score ([1]; TP13) | coloration score ([1]; TP14) | coloration score ([1]; TP15) | coloration score ([1]; TP16) | coloration score ([1]; TP17) | coloration score ([1]; TP18) | coloration score ([1]; TP19) | coloration score ([1]; TP21) | coloration score ([1]; TP22) | coloration score ([1]; TP23) | coloration score ([1]; TP24) | coloration score ([1]; TP25) | coloration score ([1]; TP27) | coloration score ([1]; TP28) | coloration score ([1]; TP29) | coloration score ([1]; TP33) | percent injury score ([2]; TP15) [%] | further results
1 | B1 | 1 | 1 | 2 | 2 | 0 | 1 | 1 | 2 | 1 | 1 | 0 | 1 | 1 | 1 | 1 | 1 | 1 | 1 | 1 | 30 | coloration score ([1]; TP20): 2; coloration score ([1]; TP26): 1; coloration score ([1]; TP30): 1; coloration score ([1]; TP31): 1; coloration score ([1]; TP32): 0; percent injury score ([2]; TP12): 20%; percent injury score ([2]; TP13): 20%; percent injury score ([2]; TP17): 25%; percent injury score ([2]; TP20): 20%; percent injury score ([2]; TP29): 30%
2 | B2 | 1 | 1 | 1 | 1 | – | 1 | – | 1 | 0 | 0 | – | – | – | 1 | – | 0 | 0 | 1 | 1 | 35 | coloration score ([1]; TP10): 0; coloration score ([1]; TP26): 0; percent injury score ([2]; TP1): 5%; percent injury score ([2]; TP9): 35%; percent injury score ([2]; TP11): 35%; percent injury score ([2]; TP26): 35%
3 | B3 | 1 | 0 | 1 | 1 | 1 | 2 | 0 | 1 | 1 | 0 | 1 | 2 | 1 | 1 | 2 | 1 | 1 | 1 | 1 | 40 | coloration score ([1]; TP10): 1; coloration score ([1]; TP26): 1; coloration score ([1]; TP30): 1; coloration score ([1]; TP31): 0; coloration score ([1]; TP32): 1; coloration score ([1]; TP34): 0; coloration score ([1]; TP36): 0; coloration score ([1]; TP37): 0; percent injury score ([2]; TP9): 40%; percent injury score ([2]; TP13): 40%; percent injury score ([2]; TP14): 40%; percent injury score ([2]; TP17): 40%; percent injury score ([2]; TP22): 40%; percent injury score ([2]; TP25): 35%
4 | B4 | 0 | 0 | 2 | 0 | 1 | 2 | 1 | 1 | 1 | 1 | 0 | 2 | 2 | 0 | 1 | 1 | 1 | 1 | 1 | 30 | coloration score ([1]; TP10): 1; coloration score ([1]; TP20): 2; coloration score ([1]; TP30): 1; coloration score ([1]; TP31): 1; coloration score ([1]; TP32): 2; coloration score ([1]; TP34): 0; coloration score ([1]; TP35): 1; coloration score ([1]; TP36): 1; percent injury score ([2]; TP10): 35%; percent injury score ([2]; TP12): 50%; percent injury score ([2]; TP20): 35%; percent injury score ([2]; TP22): 30%; percent injury score ([2]; TP23): 35%; percent injury score ([2]; TP28): 35%; percent injury score ([2]; TP29): 40%; percent injury score ([2]; TP32): 40%; percent injury score ([2]; TP35): 35%
